Reference: PMC7458484

Target: HBV core protein Cp185 (full-length) (hepatitis B virus (Human); compared to …, UniProt Q67855 1-185)
Assay: time-resolved SAXS (stopped flow), SEC capsid assembly; after mixing ~1 RNA per 6.5 Cp185 monomers; RNA in assembly buffer; RNA added to dimers in disassembly buffer immediately triggered capsid formation; Cp185 in 1.5 M GuHCl, 0.5 M LiCl, 50 mM HEPES pH 7.5, 2 mM DTT mixed 1:1 with assembly buffer 250 mM NaCl, 50 mM HEPES pH 7.5, 2 mM DTT; RNA 0.075 mg/mL final

Binder: GGGUUUGUUUAAAGACUGGGAGGAGUUGGGGGAGGAGCCC (structured_RNA) [PS1 RNA oligo (40 nt, RNA40)]
- binding result: binds
